Laboratory results reported in patent US20150231240A1, “ANTI-C16ORF54 ANTIBODIES AND METHODS OF USE THEREOF” (priority 2012, published 2015).

T1: cynomolgus monkey C16orf54 (cynomolgus monkey (Macaca fascicularis), UniProt Q6UWD8 1-224 (human entry))
T1 construct: also called cyno C16orf54; cyno-C16orf54
T1 chain: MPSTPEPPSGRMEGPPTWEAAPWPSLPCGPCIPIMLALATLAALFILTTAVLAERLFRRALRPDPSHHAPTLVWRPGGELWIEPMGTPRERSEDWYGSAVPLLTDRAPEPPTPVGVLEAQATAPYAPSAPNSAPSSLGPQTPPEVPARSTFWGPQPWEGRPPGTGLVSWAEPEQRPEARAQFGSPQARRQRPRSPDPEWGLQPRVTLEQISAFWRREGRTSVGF

T2: human C16orf54 (human, UniProt Q6UWD8 1-224)
T2 construct: also called huC16orf54; hC16orf54
T2 sequence: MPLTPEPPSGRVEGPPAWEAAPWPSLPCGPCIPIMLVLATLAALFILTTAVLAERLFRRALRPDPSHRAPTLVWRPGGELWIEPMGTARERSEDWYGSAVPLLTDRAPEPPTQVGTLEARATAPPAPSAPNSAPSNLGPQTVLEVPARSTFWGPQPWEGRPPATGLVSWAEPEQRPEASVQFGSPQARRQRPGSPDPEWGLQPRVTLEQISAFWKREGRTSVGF

T3: human C16orf54 ECD fragment aa1-15 (human)
T3 peptide: MPLTPEPPSGRVEGP

T4: human C16orf54 ECD fragment aa9-24 (human)
T4 peptide: SGRVEGPPAWEAAPWP

T5: N-terminal 32 amino acids of huC16orf54 coupled to biotin (human, biotin at the C-terminus)
T5 construct: also called 32 amino acid N-terminal extracellular domain
T5 peptide: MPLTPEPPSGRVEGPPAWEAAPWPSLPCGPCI

T6: Human C16-ECD peptide (aa1-31) (human)
T6 construct: Coated on plates in the peptide ELISA; also called human extracellular domain peptide
T6 peptide: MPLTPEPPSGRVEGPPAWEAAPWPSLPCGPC

T7: cynomolgus monkey C16orf54 (cynomolgus monkey (Macaca fascicularis))
T7 sequence: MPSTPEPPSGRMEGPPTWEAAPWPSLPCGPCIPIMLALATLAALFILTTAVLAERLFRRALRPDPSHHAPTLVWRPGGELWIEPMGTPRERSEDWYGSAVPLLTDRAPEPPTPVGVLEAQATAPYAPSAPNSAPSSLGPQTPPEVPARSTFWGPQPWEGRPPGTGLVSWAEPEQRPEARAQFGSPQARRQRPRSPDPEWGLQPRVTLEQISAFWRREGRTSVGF

T8: Cyno C16-ECD peptide (aa1-31) (cynomolgus monkey)
T8 construct: Coated on plates in the peptide ELISA; also called cyno extracellular domain peptide; Cyno ECD
T8 peptide: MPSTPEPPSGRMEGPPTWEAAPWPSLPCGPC


What was measured:
[1] = biological target: T1, cynomolgus monkey C16orf54; test: flow cytometry, 10 ug/ml antibody, F279-cyno-C16orf54 cells
Method: (§1) Anti-C16orf54 antibodies which bound to human C16orf54 were tested for their reactivity with human C16orf54 and their crossreactivity with C16orf54 from cynomolgous monkeys (cyno C16orf54) using flow cytometry. Sarcoma cells transfected with and expressing human C16orf54 or cyno C16orf54 were washed with PBS with 0.1% BSA, incubated with FcX receptor blocking solution (BioLegend) for 15 minutes, incubated with 10 μg/ml of anti-C16orf54 antibody for 1 hour at 4° C., washed twice with PBS with 0.1% BSA, incubated with 20 μg/ml of R-Phycoerythrin-AffiniPure F(ab′)2 Fragment Goat Anti-Mouse IgG, Fcγ Fragment Specific (Jackson ImmunoResearch) for 30 minutes at 4° C., washed twice with PBS with 0.1% BSA, incubated with the viability dye TO-PRO-3 iodide (Life Technologies), and immediately analyzed on a MACSQuant Analyzer instrument (Miltenyi). For each cell line and anti-C16orf54 antibody, a fold change was derived by dividing the median fluorescence intensity for Phycoerythrin in the live cell population for the anti-C16orf54 antibody by the median fluorescence intensity for Phycoerythrin in the live cell population for the IgG isotype control antibody. A number of anti-C16orf54 antibodies (see, e.g., R29-8-57B, R29-8-136C, R29-7-1C, R29-67-7A, R29-67-4A, and R29-7-2A) bind human C16orf54 and also bind (e.g., are crossreactive with) cyno C16orf54.

[2] = biological target: T2, human C16orf54; test: flow cytometry, 10 ug/ml antibody, D42M1-huC16orf54 cells
Method: as §1

[3] = biological target: T3, human C16orf54 ECD fragment aa1-15; test: peptide ELISA, 2 ug/ml peptide coated, 10 ug/ml antibody
Method: (§2) Anti-C16orf54 antibodies which bind to human C16orf54, including antibodies that are crossreactive with cyno C16orf54, were tested for their binding to various peptides derived from C16orf54 in a peptide ELISA. A 384-well high binding black microplate (Greiner) was incubated with 2 μg/ml of protein (human, cyno, or mouse extracellular domain peptides) for 16 hours, incubated for 1 hr with a blocking buffer (PBS with 5% Fetal Bovine Serum), washed four times with TBS with Tween, incubated for 1 hour with 10 μg/ml of anti-C16orf54 antibody, washed four times with TBS with Tween, incubated for 1 hour with 10 μg/ml of Peroxidase-AffiniPure Goat Anti-Mouse IgG, Fcγ Fragment Specific (Jackson ImmunoResearch), washed four times with TBS with Tween, and peroxidase was detected with a luminometer (Molecular Devices) upon addition of SuperSignal® ELISA Pico Chemiluminescent Substrate (Thermo Scientific). The luminescence signal was determined.

[4] = biological target: T4, human C16orf54 ECD fragment aa9-24; test: as above
Method: as §2

[5] = biological target: T5, N-terminal 32 amino acids of huC16orf54 …; test: biolayer interferometry (OctetQK384), hybridoma supernatant on streptavidin sensors coated with the biotinylated peptide
Method: Eight anti-huC16orf54 monoclonal antibodies were further screened for binding and subsequent off-rate analysis using the OctetQK384® sytem (ForteBio). Hybridoma supernatants were screened for association to and dissocation from streptavidin sensors coated with the N-terminal 32 amino acids of huC16orf54 coupled to biotin, and the calculated offrates (kdis) are shown in Table 31. Cloned hybridomas with […] off-rates were carried forward for antibody purification.

[6] = biological target: T1, cynomolgus monkey C16orf54; test: flow cytometry titration, F279-cyno-C16orf54 cells
Method: Anti-C16orf54 antibodies which bound to human C16orf54 were tested for their binding to cells expressing human C16orf54 and cells expressing cyno C16orf54. […] Median fluorescence intensities for each primary antibody concentration were used to derive a flow EC50/Kd using the one site-specific binding with Hill slope model in Prism (GraphPad Prism® Software). Results are shown as flow EC50 in Table 35.

[7] = biological target: T6, Human C16-ECD peptide (aa1-31); test: column head 'Full kinetics (nM)' in the table of the C16orf54 peptide binding assays; method and antigen not described; 1 run
[8] = biological target: T2, human C16orf54; test: flow cytometry titration, KG1 cells (endogenous human C16orf54)
[9] = biological target: T7, cynomolgus monkey C16orf54 (cynomolgus monkey (Macaca fascicularis)); test: flow cytometry, 10 ug/ml antibody, F279-cyno-C16orf54 cells
[10] = biological target: T8, Cyno C16-ECD peptide (aa1-31); test: peptide ELISA, 2 ug/ml peptide coated, 10 ug/ml antibody; column 'Cyno ECD bound by antibody'
Method: as §2

[11] = biological target: T6, Human C16-ECD peptide (aa1-31); test: column head 'Full kinetics (nM)' in the table of the C16orf54 peptide binding assays; method and antigen not described; 2 runs; 2 runs, stdev 0.02
[12] = biological target: T3, human C16orf54 ECD fragment aa1-15; test: peptide ELISA, 2 ug/ml peptide coated, 10 ug/ml antibody; column 'Human ECD & ECD fragments bound by antibody'
Method: as §2

[13] = biological target: T4, human C16orf54 ECD fragment aa9-24; test: as above
Method: as §2

[14] = biological target: T6, Human C16-ECD peptide (aa1-31); test: column head 'Full kinetics (nM)' in the table of the C16orf54 peptide binding assays; method and antigen not described; 4 runs
[15] = biological target: T5, N-terminal 32 amino acids of huC16orf54 …; test: biolayer interferometry (OctetQK384), purified antibody on streptavidin sensors coated with the biotinylated peptide
Method: Affinity measurements of purified anti-huC16orf54 antibodies were carried out on the OctetQK384® sytem (ForteBio). After coating streptavidin sensors with the N-terminal 32 amino acids of huC16orf54 coupled to biotin at the C-terminus, association and dissociation of purified anti-huC16orf54 antibodies was monitored. KD values were derived using ForteBio's software.

| Binder | Median fold change relative to IgG control [1] [fold] | Median fold change relative to IgG control [2] [fold] | binding result [3] | binding result [4] | koff [5] [s⁻¹] | EC50 [6] [nM] | Kd [7] [nM] | EC50 [8] [nM] | Median fold change relative to IgG control [9] [fold] | binding result [10] | Kd [11] [nM] | binding result [12] | binding result [13] | Kd [14] [nM] | Kd [15] [nM] | koff [15] [s⁻¹] | kon [15] [M⁻¹ s⁻¹] |
| --- | --- | --- | --- | --- | --- | --- | --- | --- | --- | --- | --- | --- | --- | --- | --- | --- | --- |
| R29-67-7A (antibody, V domains shown, Murine monoclonal IgG2a from a hybridoma) VH: DVQLQESGPGLVKPSQSLSLTCTVTGYSITSDYAWNWIRQFPGNKLEWMGYINYSGRTRYNPSLNSRISLTRDTSTNQFFLQLNSVTTEDTATYYCARENYDYEFYAMDYWGQGTSVTVSS VL: DIVMSQSPSSLAVSVGEKVTMSCKSSQNLLYSSNQKNYLAWYQQKPGQSPKLLIYWASTRESGVPDRFTGSGSGTDFTLTISSVKAEDLAVYYCQQYYIYRTFGGGTKLEIK | 35.6 | 140 | binds | binds | 0.00845 | 3.7 | 2.51 | 7.3 |  |  |  |  |  |  |  |  |  |
| R29-8-58C (antibody, V domains shown, Murine monoclonal antibody from a hybridoma) VH: EVKLVESGGGLVKPGGSLKFSCAASGFTFSSYAVSWVRQTPEKRLEWVASITSGGRSYYPDSVKGRFTISRDNARSMLYLHMSSLRSEDTAMYYCTRGWDENDLWGQGTTLTVSS VL: DVVMTQTPLSLFVSLGDQASISCRSSQSLLYSNGNTYLHWYLQRPGQSPQLLIYKVSNRFSGVPDRFSGSGSGTDFTLKISRVEAEDLGVYFCSQTTHVPWTFGGGTKLEIK |  | 184 |  |  |  |  |  | 0.6 | 1.4 |  |  |  |  |  |  |  |  |
| R29-8-75B (antibody, V domains shown, Murine monoclonal antibody from a hybridoma) VH: DVQLVESGGGLVQPGGSRKLSCAASGFTFSRFGMHWVRQAPEKGLEWVAYISSGSSTIYYADTVKGRFTISRDNPKNTLFLQMTSLRSEDTAMYYCARVDYDVALAYWGQGTLVTVSA VL: GVLMTQTPLSLPVSLGDQASISCRSSQSIVHRNGNTYLEWYLQKPGQSPKLLIYKVSNRFSGVPDRFSGSGSGTDFTLKISRVEAEDLGVYYCFQGSQWTFGGGTKLEIK | 7.8 | 148 |  |  |  |  |  | 6.5 |  | binds | 0.09 | binds | binds |  |  |  |  |
| R29-7-2A (antibody, V domains shown, Murine monoclonal IgG2b from a hybridoma) VH: EVQLVESGGGLIQPKGSLKLSCVASGFSFNTHAMNWVRQAPGKGLEWVARIRSKSNNYARYYADSVKDRFTISRDDSQSILYLQMNNLKTEDTAMYYCVKQGDGGFAYWGQGTLVTVSA VL: DIVMSQSPSSLAVSVGEKVTMSCKSSQSLLYSSNQKNYLAWYQQRPGQSPKLLIYWASARESGVPDRFTGSGSGTDFTLTISSVKAEDLAVYYCQQYYSYPPTFGAGTKVELK | 78.5 | 267 |  |  | 0.00707 | 2.7 |  | 1 |  |  |  | binds | binds | 1.01 | 1.3 | 4.12e-05 | 31900 |
